Data: FireProtDB (doi:10.1021/bi0015717)
“And” between values parts separate entries of the source, which are not always exact repeats. Identical values can stand only once.

B1: Lysozyme C, P61626 (parent)
chain: MKALIVLGLVLLSVTVQGKVFERCELARTLKRLGMDGYRGISLANWMCLAKWESGYNTRATNYNAGDRSTDYGIFQINSRYWCNDGKTPGAVNACHLSCSALLQDNIADAVACAKRVVRDPQGIRAWVAWRNRCQNRDVRQYVQGCGV

Variants of: B1
Settings: Homo sapiens; pH 2.65; Thermal; DSC; glycine-HCl 0.05 M; reversible: yes; structure 1LZ1; whole UniProt chain shown

Row | Variant | Tm | unfolding enthalpy (calorimetric)
1 | V20G | 56.6 °C | 95.6 kcal/mol

Same assay, conditions: Homo sapiens; pH 2.7; 64.9 °C; Thermal; DSC; glycine-HCl 0.05 M; reversible: yes; structure 1LZ1; whole UniProt chain shown

Row | Variant | ddG of mutation (higher = less stable)
2 | V20G | 2.29 kcal/mol
3 | V20L | 0.05 kcal/mol
4 | V20I | -1.1 kcal/mol
5 | V20F | 0.86 kcal/mol
6 | V20M | 0.31 kcal/mol
7 | V128I | -0.86 kcal/mol
8 | V128F | 0.05 kcal/mol

Same assay, conditions: Homo sapiens; pH 2.7; Thermal; DSC; glycine-HCl 0.05 M; reversible: yes; structure 1LZ1; whole UniProt chain shown

Row | Variant | change of melting temperature, mutant - wild type (higher = more stable) | heat capacity change of unfolding | unfolding enthalpy (calorimetric) | Tm
9 | V20G | -7.5 °C | 1.31 kcal/mol/K | 107 kcal/mol | –
10 | V20L | -0.2 °C | 1.22 kcal/mol/K | 109 kcal/mol | 64.5 °C and 64.7 °C and 64.9 °C
11 | V20I | 3.4 °C | 1.58 kcal/mol/K | 114 kcal/mol and 108 kcal/mol | 68 °C and 68.3 °C and 64.9 °C
12 | V20F | -2.7 °C | 1.63 kcal/mol/K | 110 kcal/mol | 62.2 °C and 64.9 °C
13 | V20M | -1 °C | 1.55 kcal/mol/K | 113 kcal/mol | 63.9 °C
14 | V128I | 2.7 °C | 1.65 kcal/mol/K | 111 kcal/mol and 107 kcal/mol | 67.3 °C and 67.6 °C and 64.9 °C
15 | V128M | 1.6 °C | 1.41 kcal/mol/K | 114 kcal/mol and 112 kcal/mol | 66.3 °C and 66.5 °C and 64.9 °C
16 | V128F | -0.2 °C | 1.7 kcal/mol/K | 101 kcal/mol | 64.7 °C and 64.9 °C

Same assay, conditions: Homo sapiens; pH 2.83; Thermal; DSC; glycine-HCl 0.05 M; reversible: yes; structure 1LZ1; whole UniProt chain shown

Row | Variant | Tm | unfolding enthalpy (calorimetric)
17 | V20G | 59.5 °C | 99.7 kcal/mol

Same assay, conditions: Homo sapiens; pH 3.08; Thermal; DSC; glycine-HCl 0.05 M; reversible: yes; structure 1LZ1; whole UniProt chain shown

Row | Variant | Tm | unfolding enthalpy (calorimetric)
18 | V20G | 63.8 °C | 105 kcal/mol

Same assay, conditions: Homo sapiens; pH 3.19; Thermal; DSC; glycine-HCl 0.05 M; reversible: yes; structure 1LZ1; whole UniProt chain shown

Row | Variant | Tm | unfolding enthalpy (calorimetric)
19 | V20G | 65.7 °C | 108 kcal/mol

Same assay, conditions: Homo sapiens; pH 3.4; Thermal; DSC; glycine-HCl 0.05 M; reversible: yes; structure 1LZ1; whole UniProt chain shown

Row | Variant | Tm | unfolding enthalpy (calorimetric)
20 | V20G | 69 °C | 112 kcal/mol

Same assay, conditions: Homo sapiens; pH 3.05; Thermal; DSC; glycine-HCl 0.05 M; reversible: yes; structure 1LZ1; whole UniProt chain shown

Row | Variant | Tm | unfolding enthalpy (calorimetric)
21 | V20L | 70.4 °C | 116 kcal/mol

Same assay, conditions: Homo sapiens; pH 2.5; Thermal; DSC; glycine-HCl 0.05 M; reversible: yes; structure 1LZ1; whole UniProt chain shown

Row | Variant | Tm | unfolding enthalpy (calorimetric)
22 | V20I | 65.1 °C | 108 kcal/mol

Same assay, conditions: Homo sapiens; pH 2.92; Thermal; DSC; glycine-HCl 0.05 M; reversible: yes; structure 1LZ1; whole UniProt chain shown

Row | Variant | Tm | unfolding enthalpy (calorimetric)
23 | V20I | 72.2 °C | 119 kcal/mol

Same assay, conditions: Homo sapiens; pH 3.13; Thermal; DSC; glycine-HCl 0.05 M; reversible: yes; structure 1LZ1; whole UniProt chain shown

Row | Variant | Tm | unfolding enthalpy (calorimetric)
24 | V20I | 75.5 °C | 125 kcal/mol
25 | V128I | 74.9 °C | 123 kcal/mol

Same assay, conditions: Homo sapiens; pH 2.68; Thermal; DSC; glycine-HCl 0.05 M; reversible: yes; structure 1LZ1; whole UniProt chain shown

Row | Variant | Tm | unfolding enthalpy (calorimetric)
26 | V20F | 62 °C | 106 kcal/mol

Same assay, conditions: Homo sapiens; pH 2.87; Thermal; DSC; glycine-HCl 0.05 M; reversible: yes; structure 1LZ1; whole UniProt chain shown

Row | Variant | Tm | unfolding enthalpy (calorimetric)
27 | V20F | 65 °C | 110 kcal/mol

Same assay, conditions: Homo sapiens; pH 3.09; Thermal; DSC; glycine-HCl 0.05 M; reversible: yes; structure 1LZ1; whole UniProt chain shown

Row | Variant | Tm | unfolding enthalpy (calorimetric)
28 | V20F | 68.6 °C | 116 kcal/mol
29 | V20M | 70.6 °C | 122 kcal/mol

Same assay, conditions: Homo sapiens; pH 3.22; Thermal; DSC; glycine-HCl 0.05 M; reversible: yes; structure 1LZ1; whole UniProt chain shown

Row | Variant | Tm | unfolding enthalpy (calorimetric)
30 | V20F | 71.2 °C | 121 kcal/mol

Same assay, conditions: Homo sapiens; pH 2.52; Thermal; DSC; glycine-HCl 0.05 M; reversible: yes; structure 1LZ1; whole UniProt chain shown

Row | Variant | Tm | unfolding enthalpy (calorimetric)
31 | V20M | 60.6 °C | 106 kcal/mol

Same assay, conditions: Homo sapiens; pH 2.73; Thermal; DSC; glycine-HCl 0.05 M; reversible: yes; structure 1LZ1; whole UniProt chain shown

Row | Variant | Tm | unfolding enthalpy (calorimetric)
32 | V20M | 64.5 °C | 112 kcal/mol

Same assay, conditions: Homo sapiens; pH 2.94; Thermal; DSC; glycine-HCl 0.05 M; reversible: yes; structure 1LZ1; whole UniProt chain shown

Row | Variant | Tm | unfolding enthalpy (calorimetric)
33 | V20M | 68.3 °C | 118 kcal/mol

Same assay, conditions: Homo sapiens; pH 3.31; Thermal; DSC; glycine-HCl 0.05 M; reversible: yes; structure 1LZ1; whole UniProt chain shown

Row | Variant | Tm | unfolding enthalpy (calorimetric)
34 | V20M | 74.2 °C | 127 kcal/mol

Same assay, conditions: Homo sapiens; pH 2.53; Thermal; DSC; glycine-HCl 0.05 M; reversible: yes; structure 1LZ1; whole UniProt chain shown

Row | Variant | Tm | unfolding enthalpy (calorimetric)
35 | V128I | 64.9 °C | 107 kcal/mol

Same assay, conditions: Homo sapiens; pH 2.9; Thermal; DSC; glycine-HCl 0.05 M; reversible: yes; structure 1LZ1; whole UniProt chain shown

Row | Variant | Tm | unfolding enthalpy (calorimetric)
36 | V128I | 70.9 °C | 117 kcal/mol

Same assay, conditions: Homo sapiens; pH 3.23; Thermal; DSC; glycine-HCl 0.05 M; reversible: yes; structure 1LZ1; whole UniProt chain shown

Row | Variant | Tm | unfolding enthalpy (calorimetric)
37 | V128I | 76.8 °C | 127 kcal/mol

Same assay, conditions: Homo sapiens; pH 2.48; Thermal; DSC; glycine-HCl 0.05 M; reversible: yes; structure 1LZ1; whole UniProt chain shown

Row | Variant | Tm | unfolding enthalpy (calorimetric)
38 | V128M | 62.8 °C | 109 kcal/mol

Same assay, conditions: Homo sapiens; pH 3.06; Thermal; DSC; glycine-HCl 0.05 M; reversible: yes; structure 1LZ1; whole UniProt chain shown

Row | Variant | Tm | unfolding enthalpy (calorimetric)
39 | V128M | 72.8 °C | 123 kcal/mol

Same assay, conditions: Homo sapiens; pH 2.72; Thermal; DSC; glycine-HCl 0.05 M; reversible: yes; structure 1LZ1; whole UniProt chain shown

Row | Variant | Tm | unfolding enthalpy (calorimetric)
40 | V128F | 65.1 °C | 101 kcal/mol

Same assay, conditions: Homo sapiens; pH 2.8; Thermal; DSC; glycine-HCl 0.05 M; reversible: yes; structure 1LZ1; whole UniProt chain shown

Row | Variant | Tm | unfolding enthalpy (calorimetric)
41 | V128F | 66.3 °C | 103 kcal/mol

Same assay, conditions: Homo sapiens; pH 3.04; Thermal; DSC; glycine-HCl 0.05 M; reversible: yes; structure 1LZ1; whole UniProt chain shown

Row | Variant | Tm | unfolding enthalpy (calorimetric)
42 | V128F | 70.5 °C | 110 kcal/mol
